Experimental data published in article PMC2884949, “The outer membrane secretin PilQ from Neisseria meningitidis binds DNA”.

B1: T3+T4 hybrid (dsDNA)
DNA 1: CAACAACAACAACAGGCCTGTCATCCAAAATGACAGGCCAACAACAACAACA
DNA 2: TGTTGTTGTTGTTGGCCTGTCATTTTGGATGACAGGCCTGTTGTTGTTGTTG
B2: T1 (ssDNA)
DNA: CAACAACAACAACAGCCGTCTGAACCAAATTCAGACGGCAACAACAACAACA
B3: T2 (ssDNA)
DNA: TGTTGTTGTTGTTGCCGTCTGAATTTGGTTCAGACGGCTGTTGTTGTTGTTG
B4: T3 (ssDNA)
DNA: B1 DNA 1
B5: T7 (ssDNA)
DNA: CCGCCGCCTGCCGTCTGAAAGATATTCAGACGGCATCGGC
B6: T4 (ssDNA)
DNA: B1 DNA 2
B7: T1+T2 hybrid (dsDNA)
DNA 1: B2 DNA
DNA 2: B3 DNA
B8: T8 (ssDNA)
DNA: GCCGATGCCGTCTGAATATCTTTCAGACGGCAGGCGGCGG
B9: T7+T8 hybrid (dsDNA)
DNA 1: B5 DNA
DNA 2: B8 DNA

molecular target: T1, PilQ25-132 (Neisseria meningitidis M1080, UniProt Q9JVW4 25-132); experiment: EMSA; 5 mM Mg2+; EMSA: 50 mM MOPS pH 7.5, 1 mM EDTA, 1 mM DTT, 5 mM MgCl2, 5% glycerol, 200 ng protein in 10 ul, 20 min room temperature; 6% PAGE; details: protein: recombinant; tags: His; label: 5' 32P; blunt
T1 sequence: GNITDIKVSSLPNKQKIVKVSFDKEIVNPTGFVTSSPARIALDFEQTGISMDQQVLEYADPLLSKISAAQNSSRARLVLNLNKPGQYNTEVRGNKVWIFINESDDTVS

| Binder | binding result |
| --- | --- |
| B1 | binds |

same assay, conditions: protein: recombinant; tags: His; label: 5' 32P; ss; 1 strand

| Binder | binding result |
| --- | --- |
| B2 | no binding |
| B3 | no binding |
| B4 | no binding |
| B5 | no binding |
| B6 | no binding |

molecular target: T2, PilQ218-478 (Neisseria meningitidis M1080, UniProt Q9JVW4 218-478); experiment: as above; details: protein: recombinant; tags: His (N-terminal with pQE30); label: 5' 32P; blunt
T2 sequence: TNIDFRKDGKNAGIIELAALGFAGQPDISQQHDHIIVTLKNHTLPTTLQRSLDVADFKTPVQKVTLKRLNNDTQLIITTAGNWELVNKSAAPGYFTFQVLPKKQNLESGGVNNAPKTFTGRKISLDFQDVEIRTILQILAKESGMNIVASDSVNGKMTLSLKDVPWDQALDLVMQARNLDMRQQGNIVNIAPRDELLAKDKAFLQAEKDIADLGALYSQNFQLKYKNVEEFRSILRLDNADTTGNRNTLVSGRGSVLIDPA

| Binder | binding result |
| --- | --- |
| B7 | no binding |

same assay, conditions: protein: recombinant; tags: His (N-terminal with pQE30); label: 5' 32P; ss; 1 strand

| Binder | binding result |
| --- | --- |
| B2 | no binding |
| B4 | no binding |
| B8 | no binding |
| B6 | no binding |

molecular target: T3, PilQ352-761 (Neisseria meningitidis M1080, UniProt Q9JVW4 352-761); experiment: as above; details: protein: recombinant; tags: His (C-terminal with pET28b); label: 5' 32P; blunt
T3 sequence: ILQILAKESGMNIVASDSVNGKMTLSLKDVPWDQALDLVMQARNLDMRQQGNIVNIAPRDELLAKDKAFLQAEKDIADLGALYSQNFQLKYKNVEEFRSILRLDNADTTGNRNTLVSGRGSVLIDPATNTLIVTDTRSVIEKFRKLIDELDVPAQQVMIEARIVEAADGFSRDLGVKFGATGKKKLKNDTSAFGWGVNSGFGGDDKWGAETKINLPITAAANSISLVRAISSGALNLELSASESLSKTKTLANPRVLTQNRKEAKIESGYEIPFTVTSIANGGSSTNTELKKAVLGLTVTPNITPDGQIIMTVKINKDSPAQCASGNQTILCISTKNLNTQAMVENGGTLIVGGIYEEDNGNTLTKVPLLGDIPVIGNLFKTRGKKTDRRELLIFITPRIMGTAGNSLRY

| Binder | binding result |
| --- | --- |
| B7 | no binding |
| B1 | no binding |
| B9 | no binding |

same assay, conditions: protein: recombinant; tags: His (C-terminal with pET28b); label: 5' 32P; ss; 1 strand

| Binder | binding result |
| --- | --- |
| B2 | no binding |
| B3 | no binding |
| B4 | no binding |
| B5 | no binding |
| B8 | no binding |
| B6 | no binding |

molecular target: T4, PilQ25-354 (Neisseria meningitidis M1080, UniProt Q9JVW4 25-354); experiment: as above; details: protein: recombinant; tags: His (N-terminal with pQE30); label: 5' 32P; blunt
T4 sequence: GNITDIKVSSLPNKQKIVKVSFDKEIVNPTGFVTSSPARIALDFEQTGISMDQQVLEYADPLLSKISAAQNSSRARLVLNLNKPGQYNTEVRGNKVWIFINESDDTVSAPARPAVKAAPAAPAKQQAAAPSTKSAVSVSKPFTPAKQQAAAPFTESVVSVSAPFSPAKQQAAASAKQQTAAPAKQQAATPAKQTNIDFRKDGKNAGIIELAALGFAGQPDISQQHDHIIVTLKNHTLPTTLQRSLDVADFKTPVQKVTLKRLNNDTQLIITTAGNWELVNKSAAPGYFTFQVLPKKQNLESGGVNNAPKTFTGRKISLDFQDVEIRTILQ

| Binder | binding result |
| --- | --- |
| B7 | binds |
| B1 | binds |
| B9 | binds |

same assay, conditions: protein: recombinant; tags: His (N-terminal with pQE30); label: 5' 32P; ss; 1 strand

| Binder | binding result |
| --- | --- |
| B2 | binds |
| B3 | binds |
| B4 | binds |
| B5 | binds |
| B8 | binds |
| B6 | binds |

molecular target: T5, PilQ complex (native secretin) (Neisseria meningitidis M1080, UniProt Q9JVW4 25-761); experiment: Southwestern; whole-cell lysate, PilQ multimer band; EMSA: 50 mM MOPS pH 7.5, 1 mM EDTA, 1 mM DTT, 5 mM MgCl2, 5% glycerol, 200 ng protein in 10 ul, 20 min room temperature; 6% PAGE; details: chain copies: 12, label: 5' 32P, ss, 1 strand
T5 sequence: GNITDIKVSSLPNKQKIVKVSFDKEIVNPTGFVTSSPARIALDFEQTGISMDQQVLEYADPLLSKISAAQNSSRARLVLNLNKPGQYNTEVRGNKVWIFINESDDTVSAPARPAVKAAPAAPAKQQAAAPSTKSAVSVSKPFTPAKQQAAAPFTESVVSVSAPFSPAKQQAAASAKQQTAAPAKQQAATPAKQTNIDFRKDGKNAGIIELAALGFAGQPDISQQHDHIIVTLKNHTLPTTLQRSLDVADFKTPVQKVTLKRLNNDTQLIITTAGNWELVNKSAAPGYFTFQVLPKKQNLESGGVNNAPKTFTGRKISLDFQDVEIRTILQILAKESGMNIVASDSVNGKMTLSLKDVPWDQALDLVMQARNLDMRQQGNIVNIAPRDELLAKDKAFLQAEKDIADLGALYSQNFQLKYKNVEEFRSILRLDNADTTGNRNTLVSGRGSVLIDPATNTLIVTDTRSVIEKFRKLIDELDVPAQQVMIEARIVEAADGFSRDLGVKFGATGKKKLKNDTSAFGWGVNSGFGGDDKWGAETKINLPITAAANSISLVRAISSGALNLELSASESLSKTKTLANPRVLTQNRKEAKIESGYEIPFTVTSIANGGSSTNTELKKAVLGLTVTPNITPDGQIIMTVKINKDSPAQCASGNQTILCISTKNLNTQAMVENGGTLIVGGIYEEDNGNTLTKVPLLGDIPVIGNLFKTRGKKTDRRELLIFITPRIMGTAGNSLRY

| Binder | binding result |
| --- | --- |
| B2 | binds |
